The target of assay [1] is T1, recombinant human IL-31 (hIL-31, BHK produced, A1277F, zcytor17lig CEE) (human, UniProt Q6EBC2 24-164).
T1 construct: also called recombinant hIL-31
T1 sequence: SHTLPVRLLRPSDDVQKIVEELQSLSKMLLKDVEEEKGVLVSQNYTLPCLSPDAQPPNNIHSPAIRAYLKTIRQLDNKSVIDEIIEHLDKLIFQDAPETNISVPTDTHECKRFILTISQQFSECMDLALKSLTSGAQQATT
The experiment in a line: SPR (Biacore), mAb amine-coupled to CM5 chip, hIL-31 injected. On the procedure:
(§1) The purified monoclonal antibodies were immobilized in individual flow cells on a CM5 type sensor chip. Immobilizations were performed using a standard amine coupling procedure, aiming for an immobilization level of 500 Resonance Units (RU). The antibodies were diluted to 1-5 ug/ml in 10 mM NaAc pH 4.5.
(§2) HPS-EP pH 7.4 (10 mM HEPES, 150 mM NaCl, 3 mM EDTA and 0.005% Polysorbat P20) was used as running buffer, and diluents for the recombinant hIL-31 (hIL-31, BHK produced, A1277F, zcytor17lig CEE). The hIL-31 was tested in a 3-fold dilution series from 333.3 nM to 1.4 nM. Association (injection) was 4 min., followed by a 20 min. dissociation (wash) period. Flow rate was 50 ul/min. Experiments were performed at 25OC. Regeneration of the surface was accomplished by injection of 30 sec. pulse of 10 mM Glycin-HCl pH 1.8 or 1M formic acid, at a 30 ul/min flow rate. Detection in all flow cells simultaneously. Flow cell #1 contained no immobilized antibody, and was used for subtraction of background and bulk.
(§3) The kinetic parameters were calculated by global fitting of the data using a 1:1 langmuir binding model. Data was inspected for mass-transport limitations prior to calculation of the kinetic parameters. In some experiments the Rmax was fitted locally, and the RI constant at 0.

For assay [2], the target named is recombinant human IL-31 (C108S), produced in E. coli by ZymoGenetics, MW 18 kDa (human), Q6EBC2. The experiment in a line: cell-based or functional assay.
Assay [3] deals with T2, recombinant human IL-31 (as used in the NHK STAT3 phosphorylation assay of Example 5) (human, UniProt Q6EBC2 24-164, limits assumed).
T2 sequence: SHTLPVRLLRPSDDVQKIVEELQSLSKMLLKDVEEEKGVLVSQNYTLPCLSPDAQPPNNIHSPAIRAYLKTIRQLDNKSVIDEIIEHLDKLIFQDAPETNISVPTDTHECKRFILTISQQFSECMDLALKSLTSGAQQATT
The experiment in a line: cell-based or functional assay.

Assay [4] concerns the target T1, recombinant human IL-31 (hIL-31, BHK …). The experiment in a line: SPR (Biacore), against parent 292.12.3.1. The procedure:
as §1, §2, §3
In general terms: Surface plasmon resonance follows binding to a sensor surface in real time, without labels.

By Kd is commonly meant the free concentration of one partner at which half of the binding sites on the other are occupied at equilibrium, for simple one-to-one binding. Usually koff stands for a measure of how fast the partners let go of each other. One may read the kon as the rate constant with which the complex forms.

B1: humanized 292.12.3.1 construct clone 8 (12VH5-gly + fback) (antibody, human IgG4, V domains shown)
VH: EVQLVQSGAEVKKPGESLKISCKASGYTLTRYWMQWVRQMPGKGLEWMGAIYPGDGDTRYSPSFQGQVTLTADKSISTAYLQWSSLKASDTAMYYCAFPDGYYAAPYGMDYWGQGTTVTVSS
VL: DIQMTQSPSSLSASVGDRVTITCRASGNIHNYLAWYQQKPGKVPKLLIYNAKTLADGVPSRFSGSRSETQYSLTISSLQPEDVATYYCQHFWSTPWTFGQGTKVEIKR
notes: also called 08
For the molecule B1, in assay [1], the Kd was determined as 1.9 nM, the koff was 5.4e-05 s⁻¹ and the kon is 28000 M⁻¹ s⁻¹. For the same molecule, in assay [2], the Average Fold loss in potency relative to 292.12.3.1, BAF-3(hIL-31R) proliferation assay turned out to be 2.5 fold and the Average Potency (IC50), inhibition of hIL-31-induced proliferation of BAF-3(hIL-31R) cells turned out to be 4.1 nM. Besides, in assay [3], the “IC50, IL-31-induced STAT3 phosphorylation in NHK, Exp 4” value was found to be 6.74 nM and the “IC50, IL-31-induced STAT3 phosphorylation in NHK, Exp 10” value amounted to 3.44 nM.

B2: humanized 292.12.3.1 construct clone 24 (12VH5-gly + HC(fback) + LC(G66R, G68E, F71Y)) (antibody, human IgG4, V domains shown)
VH: EVQLVQSGAEVKKPGESLKISCKASGYTLTRYWMQWVRQMPGKGLEWMGAIYPGDGDTRYSPSFQGQVTLTADKSISTAYLQWSSLKASDTAMYYCAFPDGYYAAPYGMDYWGQGTTVTVSS
VL: DIQMTQSPSSLSASVGDRVTITCRASGNIHNYLAWYQQKPGKVPKLLIYNAKTLADGVPSRFSGSRSETDYTLTISSLQPEDVATYYCQHFWSTPWTFGQGTKVEIKR
As for B2, in assay [2], the Average Fold loss in potency relative to 292.12.3.1, BAF-3(hIL-31R) proliferation assay worked out at 4 fold and the Average Potency (IC50), inhibition of hIL-31-induced proliferation of BAF-3(hIL-31R) cells came to 6 nM.

B3: humanized 292.12.3.1 construct clone 22 (12VH5-gly + HC(fback) + LC(G66R, G68E, D70Q, T72S)) (antibody, human IgG4, V domains shown)
VH: EVQLVQSGAEVKKPGESLKISCKASGYTLTRYWMQWVRQMPGKGLEWMGAIYPGDGDTRYSPSFQGQVTLTADKSISTAYLQWSSLKASDTAMYYCAFPDGYYAAPYGMDYWGQGTTVTVSS
VL: DIQMTQSPSSLSASVGDRVTITCRASGNIHNYLAWYQQKPGKVPKLLIYNAKTLADGVPSRFSGSRSETQFSLTISSLQPEDVATYYCQHFWSTPWTFGQGTKVEIKR
Consider B3, for which, in assay [1], the Kd was found to be 1.7 nM, the koff is 0.00011 s⁻¹ and the kon was determined as 67000 M⁻¹ s⁻¹. Besides, in assay [4], the “Relative potency loss (kd)” value is ~2 x to parent. Also, in assay [2], the Average Fold loss in potency relative to 292.12.3.1, BAF-3(hIL-31R) proliferation assay came out at 13.2 fold and the Average Potency (IC50), inhibition of hIL-31-induced proliferation of BAF-3(hIL-31R) cells came out at 14 nM.

B4: humanized 292.12.3.1 construct clone 21 (12VH5-gly + HC(G24A, S28T, F29L, R94F) + LC(fback)) (antibody, human IgG4, V domains shown)
VH: EVQLVQSGAEVKKPGESLKISCKASGYTLTRYWMQWVRQMPGKGLEWMGAIYPGDGDTRYSPSFQGQVTISADKSISTAYLQWSSLKASDTAMYYCAFPDGYYAAPYGMDYWGQGTTVTVSS
VL: DIQMTQSPSSLSASVGDRVTITCRASGNIHNYLAWYQQKPGKVPKLLIYNAKTLADGVPSRFSGSRSETQYSLTISSLQPEDVATYYCQHFWSTPWTFGQGTKVEIKR
For B4, in assay [1], the Kd was found to be 1.4 nM, the koff is 9.7e-05 s⁻¹ and the kon worked out at 69000 M⁻¹ s⁻¹. In assay [2], the Average Fold loss in potency relative to 292.12.3.1, BAF-3(hIL-31R) proliferation assay was 3.5 fold and the Average Potency (IC50), inhibition of hIL-31-induced proliferation of BAF-3(hIL-31R) cells is 4.8 nM.

B5: humanized 292.12.3.1 construct clone 10 (12VH1-gly + LC(fback)) (antibody, human IgG4, V domains shown)
VH: QVQLVQSGAEVKKPGASVKVSCKASGYTFTRYWMQWVRQAPGQGLEWMGAIYPGDGDTRYSQKFQGRVTMTRDTSISTVYMELSSLRSEDTAVYYCARPDGYYAAPYGMDYWGQGTLVTVSS
VL: DIQMTQSPSSLSASVGDRVTITCRASGNIHNYLAWYQQKPGKVPKLLIYNAKTLADGVPSRFSGSRSETQYSLTISSLQPEDVATYYCQHFWSTPWTFGQGTKVEIKR
On to B5, for which, in assay [1], the Kd came to 186 nM, the off-rate constant (koff) was determined as 0.015 s⁻¹ and the kon came to 88000 M⁻¹ s⁻¹. For the same molecule, in assay [4], the “Relative potency loss (KD)” value is ~85 x to parent and the “Relative potency loss (kd)” value is ~245 x to parent. Further, in assay [3], the “IC50, IL-31-induced STAT3 phosphorylation in NHK, Exp 6” value (“IC50 … Exp 6” for short) was 68.8 nM and the “IC50, IL-31-induced STAT3 phosphorylation in NHK, Exp 7” value (shortened to “IC50 … Exp 7”) worked out at 224 nM.

B6: humanized 292.12.3.1 construct clone 11 (12VH5-gly + HC(fback)) (antibody, human IgG4, V domains shown)
VH: EVQLVQSGAEVKKPGESLKISCKASGYTLTRYWMQWVRQMPGKGLEWMGAIYPGDGDTRYSPSFQGQVTLTADKSISTAYLQWSSLKASDTAMYYCAFPDGYYAAPYGMDYWGQGTTVTVSS
VL: DIQMTQSPSSLSASVGDRVTITCRASGNIHNYLAWYQQKPGKVPKLLIYNAKTLADGVPSRFSGSGSGTDFTLTISSLQPEDVATYYCQHFWSTPWTFGQGTKVEIKR
Turning to B6, in assay [1], the Kd was determined as 1.46 nM, the koff was 7.6e-05 s⁻¹ and the kon turned out to be 52000 M⁻¹ s⁻¹. In assay [2], the Average Fold loss in potency relative to 292.12.3.1, BAF-3(hIL-31R) proliferation assay was 11.6 fold and the Average Potency (IC50), inhibition of hIL-31-induced proliferation of BAF-3(hIL-31R) cells amounted to 22.8 nM.

B7: humanized 292.12.3.1 construct clone 7 (12VH1-gly + fback) (antibody, human IgG4, V domains shown)
VH: QVQLVQSGAEVKKPGASVKVSCKASGYTLTRYWMQWVRQAPGQGLEWMGAIYPGDGDTRYSQKFQGRVTLTADKSISTAYMELSSLRSEDTAVYYCAFPDGYYAAPYGMDYWGQGTLVTVSS
VL: DIQMTQSPSSLSASVGDRVTITCRASGNIHNYLAWYQQKPGKVPKLLIYNAKTLADGVPSRFSGSRSETQYSLTISSLQPEDVATYYCQHFWSTPWTFGQGTKVEIKR
notes: also called 07
Take B7: in assay [1], the Kd amounted to 1.9 nM, the koff was 5.7e-05 s⁻¹ and the kon was found to be 33000 M⁻¹ s⁻¹. In assay [2], the Average Fold loss in potency relative to 292.12.3.1, BAF-3(hIL-31R) proliferation assay was determined as 3.3 fold and the Average Potency (IC50), inhibition of hIL-31-induced proliferation of BAF-3(hIL-31R) cells came out at 4.5 nM. Also, in assay [3], the “IC50, IL-31-induced STAT3 phosphorylation in NHK, Exp 4” value came out at 7.8 nM; the “IC50 … Exp 6” value was determined as 3.99 nM; the “IC50 … Exp 7” value came out at 7.74 nM; the “IC50, IL-31-induced STAT3 phosphorylation in NHK, Exp 8” value was 5.44 nM. Also, in assay [3], the “IC50, IL-31-induced STAT3 phosphorylation in NHK, Exp 9” value came out at 7.58 nM and the “IC50, IL-31-induced STAT3 phosphorylation in NHK, Exp 10” value was 8.82 nM.

B8: humanized 292.12.3.1 construct clone 23 (12VH5-gly + HC(fback) + LC(D70Q, F71Y, T72S)) (antibody, human IgG4, V domains shown)
VH: EVQLVQSGAEVKKPGESLKISCKASGYTLTRYWMQWVRQMPGKGLEWMGAIYPGDGDTRYSPSFQGQVTLTADKSISTAYLQWSSLKASDTAMYYCAFPDGYYAAPYGMDYWGQGTTVTVSS
VL: DIQMTQSPSSLSASVGDRVTITCRASGNIHNYLAWYQQKPGKVPKLLIYNAKTLADGVPSRFSGSGSGTQYSLTISSLQPEDVATYYCQHFWSTPWTFGQGTKVEIKR
On to B8, for which, in assay [1], the Kd was determined as 1.4 nM, the koff came out at 9e-05 s⁻¹ and the kon is 65000 M⁻¹ s⁻¹. Besides, in assay [4], the “Relative potency loss (KD)” value was ~0.6 x to parent and the “Relative potency loss (kd)” value is ~1.5 x to parent. For the same molecule, in assay [2], the Average Fold loss in potency relative to 292.12.3.1, BAF-3(hIL-31R) proliferation assay was determined as 7.6 fold and the Average Potency (IC50), inhibition of hIL-31-induced proliferation of BAF-3(hIL-31R) cells was 8.6 nM.

B9: humanized 292.12.3.1 construct clone 14 (12VH1-gly + HC(M69L, R71A, T73K, V78A, R94F) + LC(fback)) (antibody, human IgG4, V domains shown)
VH: QVQLVQSGAEVKKPGASVKVSCKASGYTFTRYWMQWVRQAPGQGLEWMGAIYPGDGDTRYSQKFQGRVTLTADKSISTAYMELSSLRSEDTAVYYCAFPDGYYAAPYGMDYWGQGTLVTVSS
VL: DIQMTQSPSSLSASVGDRVTITCRASGNIHNYLAWYQQKPGKVPKLLIYNAKTLADGVPSRFSGSRSETQYSLTISSLQPEDVATYYCQHFWSTPWTFGQGTKVEIKR
Take B9: in assay [1], the Kd was determined as 12.5 nM, the off-rate (koff) was 0.00073 s⁻¹ and the kon is 59000 M⁻¹ s⁻¹. Besides, in assay [4], the “Relative potency loss (KD)” value is ~5.5 x to parent and the “Relative potency loss (kd)” value is ~12 x to parent. For the same molecule, in assay [3], the “IC50 … Exp 6” value was 71.9 nM and the “IC50 … Exp 7” value was 242 nM.
